To fix the notation:
B1: human TFIIIC subunit TFIIIC90 (natural protein)
chain: MNTADQARVGPADDGPAPSGEEEGEGGGEAGGKEPAADAAPGPSAAFRLMVTRREPAVKLQYAVSGLEPLAWSEDHRVSVSTARSIAVLELICDVHNPGQDLVIHRTSVPAPLNSCLLKVGSKTEVAECKEKFAASKDPTVSQTFMLDRVFNPEGKALPPMRGFKYTSWSPMGCDANGRCLLAALTMDNRLTIQANLNRLQWVQLVDLTEIYGERLYETSYRLSKNEAPEGNLGDFAEFQRRHSMQTPVRMEWSGICTTQQVKHNNECRDVGSVLLAVLFENGNIAVWQFQLPFVGKESISSCNTIESGITSPSVLFWWEYEHNNRKMSGLIVGSAFGPIKILPVNLKAVKGYFTLRQPVILWKEMDQLPVHSIKCVPLYHPYQKCSCSLVVAARGSYVFWCLLLISKAGLNVHNSHVTGLHSLPIVSMTADKQNGTVYTCSSDGKVRQLIPIFTDVALKFEHQLIKLSDVFGSVRTHGIAVSPCGAYLAIITTEGMINGLHPVNKNYQVQFVTLKTFEEAAAQLLESSVQNLFKQVDLIDLVRWKILKDKHIPQFLQEALEKKIESSGVTYFWRFKLFLLRILYQSMQKTPSEALWKPTHEDSKILLVDSPGMGNADDEQQEEGTSSKQVVKQGLQERSKEGDVEEPTDDSLPTTGDAGGREPMEEKLLEIQGKIEAVEMHLTREHMKRVLGEVYLHTWITENTSIPTRGLCNFLMSDEEYDDRTARVLIGHISKKMNKQTFPEHCSLCKEILPFTDRKQAVCSNGHIWLRCFLTYQSCQSLIYRRCLLHDSIARHPAPEDPDWIKRLLQSPCPFCDSPVF
notes: TFIIIC90, subunit of human TFIIIC; coding gene from DNASU, codon-optimized for insect cells; No truncation is described; also called τ60 in yeast (homolog); source: Sf21 insect cells, baculovirus, coexpressed with the other five hTFIIIC subunits; purified (anti-FLAG M2 agarose, Capto HiRes Q)
B2: human TFIIIC subunit TFIIIC63 (natural protein)
chain: MAAEAADLGLGAAVPVELRRERRMVCVEYPGVVRDVAKMLPTLGGEEGVSRIYADPTKRLELYFRPKDPYCHPVCANRFSTSSLLLRIRKRTRRQKGVLGTEAHSEVTFDMEILGIISTIYKFQGMSDFQYLAVHTEAGGKHTSMYDKVLMLRPEKEAFFHQELPLYIPPPIFSRLDAPVDYFYRPETQHREGYNNPPISGENLIGLSRARRPHNAIFVNFEDEEVPKQPLEAAAQTWRRVCTNPVDRKVEEELRKLFDIRPIWSRNAVKANISVHPDKLKVLLPFIAYYMITGPWRSLWIRFGYDPRKNPDAKIYQVLDFRIRCGMKHGYAPSDLPVKAKRSTYNYSLPITVKKTSSQLVTMHDLKQGLGPSGTSGARKPASSKYKLKDSVYIFREGALPPYRQMFYQLCDLNVEELQKIIHRNDGAENSCTERDGWCLPKTSDELRDTMSLMIRQTIRSKRPALFSSSAKADGGKEQLTYESGEDEEDEEEEEEEEEDFKPSDGSENEMETEILDYV
notes: TFIIIC63, subunit of human TFIIIC; coding gene from DNASU, codon-optimized for insect cells; No truncation is described; also called τ95 in yeast (homolog); GTC3C5 (so in the source); source: Sf21 insect cells, baculovirus, coexpressed with the other five hTFIIIC subunits; purified (anti-FLAG M2 agarose, Capto HiRes Q)
B3: human TFIIIC subunit TFIIIC110 (natural protein)
chain: MDTCGVGYVALGEAGPVGNMTVVDSPGQEVLNQLDVKTSSEMTSAEASVEMSLPTPLPGFEDSPDQRRLPPEQESLSRLEQPDLSSEMSKVSKPRASKPGRKRGGRTRKGPKRPQQPNPPSAPLVPGLLDQSNPLSTPMPKKRGRKSKAELLLLKLSKDLDRPESQSPKRPPEDFETPSGERPRRRAAQVALLYLQELAEELSTALPAPVSCPEGPKVSSPTKPKKIRQPAACPGGEEVDGAPRDEDFFLQVEAEDVEESEGPSESSSEPEPVVPRSTPRGSTSGKQKPHCRGMAPNGLPNHIMAPVWKCLHLTKDFREQKHSYWEFAEWIPLAWKWHLLSELEAAPYLPQEEKSPLFSVQREGLPEDGTLYRINRFSSITAHPERWDVSFFTGGPLWALDWCPVPEGAGASQYVALFSSPDMNETHPLSQLHSGPGLLQLWGLGTLQQESCPGNRAHFVYGIACDNGCIWDLKFCPSGAWELPGTPRKAPLLPRLGLLALACSDGKVLLFSLPHPEALLAQQPPDAVKPAIYKVQCVATLQVGSMQATDPSECGQCLSLAWMPTRPHQHLAAGYYNGMVVFWNLPTNSPLQRIRLSDGSLKLYPFQCFLAHDQAVRTLQWCKANSHFLVSAGSDRKIKFWDLRRPYEPINSIKRFLSTELAWLLPYNGVTVAQDNCYASYGLCGIHYIDAGYLGFKAYFTAPRKGTVWSLSGSDWLGTIAAGDISGELIAAILPDMALNPINVKRPVERRFPIYKADLIPYQDSPEGPDHSSASSGVPNPPKARTYTETVNHHYLLFQDTDLGSFHDLLRREPMLRMQEGEGHSQLCLDRLQLEAIHKVRFSPNLDSYGWLVSGGQSGLVRIHFVRGLASPLGHRMQLESRAHFNAMFQPSSPTRRPGFSPTSHRLLPTP
notes: TFIIIC110, subunit of human TFIIIC; No truncation is described; also called τ91 in yeast (homolog); GTF3C2; source: Sf21 insect cells, baculovirus, coexpressed with the other five hTFIIIC subunits; purified (anti-FLAG M2 agarose, Capto HiRes Q)
B4: human TFIIIC subunit TFIIIC35 (natural protein)
chain: MAAAADERSPEDGEDEEEEEQLVLVELSGIIDSDFLSKCENKCKVLGIDTERPILQVDSCVFAGEYEDTLGTCVIFEENVEHADTEGNNKTVLKYKCHTMKKLSMTRTLLTEKKEGEENIGGVEWLQIKDNDFSYRPNMICNFLHENEDEEVVASAPDKSLELEEEEIQMNDSSNLSCEQEKPMHLEIEDSGPLIDIPSETEGSVFMETQMLP
notes: TFIIIC35, subunit of human TFIIIC; the ordered GTF3C6 gene encoded a serine in position 1, which was replaced by methionine; No truncation is described; also called τ55 in yeast (homolog); GTF3C6; source: Sf21 insect cells, baculovirus, coexpressed with the other five hTFIIIC subunits; purified (anti-FLAG M2 agarose, Capto HiRes Q)
B5: human TFIIIC subunit TFIIIC102 (natural protein)
chain: MSGFSPELIDYLEGKISFEEFERRREERKTREKKSLQEKGKLSAEENPDDSEVPSSSGINSTKSQDKDVNEGETSDGVRKSVHKVFASMLGENEDDEEEEEEEEEEEEEEETPEQPTAGDVFVLEMVLNRETKKMMKEKRPRSKLPRALRGLMGEANIRFARGEREEAILMCMEIIRQAPLAYEPFSTLAMIYEDQGDMEKSLQFELIAAHLNPSDTEEWVRLAEMSLEQDNIKQAIFCYTKALKYEPTNVRYLWERSSLYEQMGDHKMAMDGYRRILNLLSPSDGERFMQLARDMAKSYYEANDVTSAINIIDEAFSKHQGLVSMEDVNIAAELYISNKQYDKALEIITDFSGIVLEKKTSEEGTSEENKAPENVTCTIPDGVPIDITVKLMVCLVHLNILEPLNPLLTTLVEQNPEDMGDLYLDVAEAFLDVGEYNSALPLLSALVCSERYNLAVVWLRHAECLKALGYMERAAESYGKVVDLAPLHLDARISLSTLQQQLGQPEKALEALEPMYDPDTLAQDANAAQQELKLLLHRSTLLFSQGKMYGYVDTLLTMLAMLLKVAMNRAQVCLISSSKSGERHLYLIKVSRDKISDSNDQESANCDAKAIFAVLTSVLTKDDWWNLLLKAIYSLCDLSRFQEAELLVDSSLEYYSFYDDRQKRKELEYFGLSAAILDKNFRKAYNYIRIMVMENVNKPQLWNIFNQVTMHSQDVRHHRFCLRLMLKNPENHALCVLNGHNAFVSGSFKHALGQYVQAFRTHPDEPLYSFCIGLTFIHMASQKYVLRRHALIVQGFSFLNRYLSLRGPCQESFYNLGRGLHQLGLIHLAIHYYQKALELPPLVVEGIELDQLDLRRDIAYNLSLIYQSSGNTGMAQTLLYTYCSI
notes: TFIIIC102, subunit of human TFIIIC; No truncation is described; also called τ131 in yeast (homolog); GTF3C3; source: Sf21 insect cells, baculovirus, coexpressed with the other five hTFIIIC subunits; purified (anti-FLAG M2 agarose, Capto HiRes Q)

Data set [1] deals with T1, human TFIIIC subunit TFIIIC220 (human, UniProt Q12789 1-2109).
T1 construct: TFIIIC220, largest subunit of human TFIIIC; 2109 amino acids as printed; No truncation is described; the expected mass of 624 kDa is that of the intact complex; also called τ138 in yeast (homolog); GTF3C1; source: Sf21 insect cells, baculovirus, coexpressed with the other five hTFIIIC subunits; purified (anti-FLAG M2 agarose, Capto HiRes Q); not shown: 3x FLAG, C-terminal, kept
Put plainly: mass photometry; purified hTFIIIC alone; 1 μl of sample at 400 nM added to 19 μl of 20 mM Hepes pH 8, 150 mM KCl, 2 mM MgCl2, 5 mM DTT; Refeyn TwoMP; nanomolar concentrations. The settings on record: both partners purified.

Data set [2] deals with the molecule itself. The experiment in a line: cryo-EM structure; purified hTFIIIC (3.17 μM) alone or with human TRR-TCT3-2 tRNA gene DNA at a 1:1 molar ratio; EM buffer 20 mM Hepes pH 8, 225 mM KCl, 2 mM MgCl2, 5 mM DTT; 0.1% octyl-β-glucoside; separate reconstructions of τA and of dimeric τB.
In data set [3] the target is B2. Described as above. The settings on record: both partners purified.

This is an account of results in publication PMC11811891, “Structural insights into human TFIIIC promoter recognition” (Science Advances, 2023).

T1 sequence (Q12789 whole entry, the tested form may be a part): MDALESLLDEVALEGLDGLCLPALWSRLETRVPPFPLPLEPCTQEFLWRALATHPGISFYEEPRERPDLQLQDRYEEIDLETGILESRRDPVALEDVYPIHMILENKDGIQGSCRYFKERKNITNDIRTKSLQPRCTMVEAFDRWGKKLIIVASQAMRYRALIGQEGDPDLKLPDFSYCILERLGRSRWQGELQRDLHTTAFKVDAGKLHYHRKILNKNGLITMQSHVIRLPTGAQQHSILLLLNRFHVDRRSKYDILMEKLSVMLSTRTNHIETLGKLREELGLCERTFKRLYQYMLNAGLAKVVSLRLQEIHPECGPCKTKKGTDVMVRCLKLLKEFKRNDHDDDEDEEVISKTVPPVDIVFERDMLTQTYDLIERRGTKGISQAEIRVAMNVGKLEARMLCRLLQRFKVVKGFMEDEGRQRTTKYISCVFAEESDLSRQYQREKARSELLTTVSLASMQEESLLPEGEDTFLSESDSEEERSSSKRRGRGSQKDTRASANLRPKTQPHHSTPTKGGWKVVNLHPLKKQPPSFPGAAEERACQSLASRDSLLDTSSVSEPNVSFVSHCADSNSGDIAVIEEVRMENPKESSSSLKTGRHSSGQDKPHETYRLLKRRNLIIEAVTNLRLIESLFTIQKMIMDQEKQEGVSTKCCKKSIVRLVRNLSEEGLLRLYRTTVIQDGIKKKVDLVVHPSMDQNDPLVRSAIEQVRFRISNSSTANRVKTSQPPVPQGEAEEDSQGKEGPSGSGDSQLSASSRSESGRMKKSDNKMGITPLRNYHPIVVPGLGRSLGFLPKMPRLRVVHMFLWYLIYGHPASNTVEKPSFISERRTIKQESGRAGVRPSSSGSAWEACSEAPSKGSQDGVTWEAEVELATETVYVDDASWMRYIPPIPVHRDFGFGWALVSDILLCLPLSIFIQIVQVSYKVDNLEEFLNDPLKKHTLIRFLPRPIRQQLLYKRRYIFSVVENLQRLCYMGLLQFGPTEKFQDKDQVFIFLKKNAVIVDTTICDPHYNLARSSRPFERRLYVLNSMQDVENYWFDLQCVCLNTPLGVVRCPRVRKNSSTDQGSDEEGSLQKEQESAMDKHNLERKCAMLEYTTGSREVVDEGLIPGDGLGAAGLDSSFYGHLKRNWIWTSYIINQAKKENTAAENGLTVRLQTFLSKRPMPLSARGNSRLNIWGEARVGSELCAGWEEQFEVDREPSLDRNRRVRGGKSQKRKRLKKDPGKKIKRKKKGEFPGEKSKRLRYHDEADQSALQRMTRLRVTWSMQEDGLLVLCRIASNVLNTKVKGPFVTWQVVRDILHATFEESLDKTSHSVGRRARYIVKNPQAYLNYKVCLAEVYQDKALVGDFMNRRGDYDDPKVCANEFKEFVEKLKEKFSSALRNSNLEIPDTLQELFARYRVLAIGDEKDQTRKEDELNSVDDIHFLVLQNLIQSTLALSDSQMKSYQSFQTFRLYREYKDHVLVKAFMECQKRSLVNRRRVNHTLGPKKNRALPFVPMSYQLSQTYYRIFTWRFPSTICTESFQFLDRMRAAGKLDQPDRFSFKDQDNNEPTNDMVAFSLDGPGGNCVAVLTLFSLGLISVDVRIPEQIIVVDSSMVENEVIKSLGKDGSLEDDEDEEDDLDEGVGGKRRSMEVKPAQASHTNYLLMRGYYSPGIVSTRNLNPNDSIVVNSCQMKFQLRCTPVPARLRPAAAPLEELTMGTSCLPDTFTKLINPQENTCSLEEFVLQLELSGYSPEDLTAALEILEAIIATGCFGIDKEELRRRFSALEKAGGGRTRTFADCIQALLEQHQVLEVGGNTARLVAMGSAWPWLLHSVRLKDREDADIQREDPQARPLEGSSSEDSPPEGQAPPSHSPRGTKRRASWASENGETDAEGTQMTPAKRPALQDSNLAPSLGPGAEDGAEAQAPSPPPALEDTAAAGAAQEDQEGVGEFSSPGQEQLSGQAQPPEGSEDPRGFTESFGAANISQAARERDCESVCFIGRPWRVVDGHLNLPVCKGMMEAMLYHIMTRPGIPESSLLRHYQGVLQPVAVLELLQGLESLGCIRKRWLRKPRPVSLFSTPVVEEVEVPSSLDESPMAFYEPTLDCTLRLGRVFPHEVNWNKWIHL

As for B1, in data set [1], the binding result is on record as “binds”.

Take B2: in data set [1], the binding result is given as “binds”. Broadly, the stoichiometry N is the number of molecules, sites or subunits per partner or assembly. As to B3, in data set [1], the binding result is recorded as “binds”. For the same molecule, the “stoichiometry N” value in data set [2] is 2. Take B4: the binding result in data set [1] and in data set [3] was “binds” throughout. B5: in data set [1], the binding result is “binds”.
